5 sequences from the DeepSol protein solubility set can be followed below.

This data set can be described thus: soluble on expression in E. coli; label from the status in PepcDB or PDB records.
With “MSAGTRTQQQPPPKQRHPFQPACRLWCPLSPPSVLPFCASTCRPPPQDRQVRQCGGRIALRVAISPLSSSHSVLDGISHLASRMSDHADIDEAARKRLRAEAPFVSPLPLPPPAAPLLPCDASHNGESAEAAGHILVASAPPHKEDSVASTLHTSAKEARFEGRCMPPSFHSLLGEYEVPEEAKDVEDLVGGHEDFSDLPEARREALLQSVRTLVKKAAGASSAEQLEHLRVKGSRLHGFKDTARKSELTAAYRQLVREGAIAENAVVEALLIRKKGKSHSGVLVVTVFMGPGEFSCPKDCHYCPNQPGIARSYLLKEPGVLRGFRNGWDPISQFYDRASALENNGHVVDKIELIILGGTFSFYPQRYAEEFMTASFYAANTYYDSAPLRPMRSLAEELTLNEGARCRIIGITAETRPDYISARELRRFRSLGITRVQLGIQHLDDDILNLINRDCPTAKTVVAIQRLLDAGFKVDAHWMPDLPGSSFEKDMELFETLFSAENESFQVDQWKVYPTATVPFTKISEWYAQGQYKPYAELDNGAYMVKLLVYIMEHCPYRIRLNRIIRDIPTTYIMGGEKRCNLRQVIEAEMRARHIRCKDIRERECKGNPVDRANTHLFTDEFRASEGTEFYLSVENKDRTQLYGHLRLRLRDDASREESNILPVLRGCALVRELHTYGKLIAVSQQNTGRETQHVGVGTQLMREAERIAKERGYHRMAVIAGVGVRRYYAKLGYRLEDTYMVKELDEQASAITEDQVVQDDDNENSAYSSFLSTIKSFFGFHKNTP”, the “soluble on expression in E. coli” value is “not soluble”.

As to “MSQKRSLVFAIRDFPPGCGTHIDVSSSLNHPAEKAFKHPRTGDVSGENLSFAEAKPEGTCLKRESADQDHIFAAPEHNAKREPAGQDHVVAATTVAYATSSHRQKVEIGNSDCDPTPREKVLEVLSLFKQVYNQLDRDKKARRGGDFLDATSRIDLKTLTVLEKMGKQVNTEKRIGSVPGINIGDVFQYKTELRVVGLHSKPMCGIDYIKLGDDRITTSIVASEGYGYNDTYNSGVMVYTGEGGNVINKQKKTEDQKLVKGNLALATSMRQKSQVRVIRGEERLDRKGKRYVYDGLYMVEEYWVERDVRGKSVYKFKLCRIPGQLPLT”, the “soluble on expression in E. coli” value was “not soluble”.

“GPGSMPTRSHGDEEYYRQSRYKPVSIEDTPMFWKERADKCYGTQQWKAAANAYSESIKRDGAFLTCVMNRSACYLQMADYKRAIEDCSLALTMLANTPASEVTQERYRGLMTKLHARRGAAYCWADDLKSGAADLRMAAAYRDPTSDDDVAADLAMIEAQMKERGITEVDACVDPLSTRMQEAAAQYYQGSYEAAEATYSAILKEQPFHMKAQGNLAATLLRAGKFTQALQVCDGIVQFCSEAAAALEQPGGLAGDQLDSDDEEDEDEPDWAASSTESAPEEVEGASNKDTLVRQRRAAAKTLGEQSGHVYMLLKAYVRSAAALCGMKEYHKAHGYLERAMRITPYDNDLREDCNRLAEKIRMDTLITASAGSARTQKAAV”: the “soluble on expression in E. coli” value is “soluble”.

With “MSLQLDEYLRQLAPSMTQWRRDFHLHAESGWLEFRTASKVADILDGLGYQLALGRDVIDADSRMGLPDEETLARAFERAREQGAPERWLPAFEGGFAGVVATLDTGRPGPTLAFRVDMDALDLNEQHDDSHRPHRDHFASCNAGMMHACGHDGHTAIGLGLAHVLKQYAAQLNGVIKLIFQPAEEGTRGARAMVAAGVVDDVDYFTAIHIGTGVPAGTVVCGGDNFMATTKFDVQFSGVAAHAGGKPEDGRNALLAAAQAALGLHAIPPHSAGASRVNVGVMQAGTGRNVVPSSALLKVETRGESEAINQYVFERAQHVVAGAAAMYEARYELRMMGAATASAPSPAWVDYLREQAARVPGVQQAVDRIAAPAGSEDATLMMARVQARGGLASYMIFGTELSAGHHNEKFDFDESVMAVAVETLARVALNFPWQRGVEGHHHHHH”, the “soluble on expression in E. coli” value is recorded as “soluble”.

Consider “MKVYLESFGCSASQASAEIMKASIGKLGHELLSPENAGQAEVYICNSCTVKYTTEQKILYKIRSMGEKGVQVIVSGCMPEVQLEDILHANPEAHILGVNAVSRLGDLLSTIEQRKKTGIPGGERLEIRTSEPQGFLNVPRERSNPNIHICQISQGCNFACSYCIVKHARGKLLSFPPEEIIEDIRSAVADGCREIWLTSQDDSQYGMDTGVKLPELLRAISEIPGDFKVRVGMMNPFSVLPILDDLVDAFDSDKIFKLLHLPIQSASHSVLKKMNRLHKMDSVDEIITKFRAHFEDLSLFTDIIVGFCDETDEDFEETIEWVKKYRPEKINISRYSPRPHTKAFSFRNLDSRISVKRSHQLHKVCEQIKIESKNEMIGWKGRVFVSKYTEIGDVLTRTDSYRPVVISGSDLRPGEYAEVKITGAKPGYFLGKLVSLEHHHHHH”, for which the “soluble on expression in E. coli” value is given as “soluble”.
